Earlier results on 1 molecule are cited in US7323168B2, “Immunotherapy for chronic myelocytic leukemia” (Immunomedics, Inc., priority 2000, dated 2008).

The data set has as its system IFN-γ levels. To be noted: single intravenous dose 42.5 μg/kilogram, rhesus monkeys.

B1: recombinant IL-12: recombinant interleukin-12 (protein, UniProt P29459 23-219; P29460 23-328, looked up)
Interleukin-12 subunit alpha: RNLPVATPDPGMFPCLHHSQNLLRAVSNMLQKARQTLEFYPCTSEEIDHEDITKDKTSTVEACLPLELTKNESCLNSRETSFITNGSCLASRKTSFMMALCLSSIYEDLKMYQVEFKTMNAKLLMDPKRQIFLDQNMLAVIDELMQALNFNSETVPQKSSLEEPDFYKTKIKLCILLHAFRIRAVTIDRVMSYLNAS
Interleukin-12 subunit beta: IWELKKDVYVVELDWYPDAPGEMVVLTCDTPEEDGITWTLDQSSEVLGSGKTLTIQVKEFGDAGQYTCHKGGEVLSHSLLLLHKKEDGIWSTDILKDQKEPKNKTFLRCEAKNYSGRFTCWWLTTISTDLTFSVKSSRGSSDPQGVTCGAATLSAERVRGDNKEYEYSVECQEDSACPAAEESLPIEVMVDAVHKLKYENYTSSFFIRDIIKPDPPKNLQLKPLKNSRQVEVSWEYPDTWSTPHSYFSLTFCVQVQGKSKREKKDRVFTDKTSATVICRKNASISVRAQDRYYSSSWSEWASVPCS
Regarding B1, the IFN-γ levels entry is on record as “elevated”.
